For assay [1], the target named is zip from GCN4 (T25-zip and T18-zip, positive control of the BACTH kit). Put plainly: two-hybrid.
For assay [2], the target named is T1, N-terminally His-tagged PflB (E. coli, UniProt P09373 2-760).
T1 sequence: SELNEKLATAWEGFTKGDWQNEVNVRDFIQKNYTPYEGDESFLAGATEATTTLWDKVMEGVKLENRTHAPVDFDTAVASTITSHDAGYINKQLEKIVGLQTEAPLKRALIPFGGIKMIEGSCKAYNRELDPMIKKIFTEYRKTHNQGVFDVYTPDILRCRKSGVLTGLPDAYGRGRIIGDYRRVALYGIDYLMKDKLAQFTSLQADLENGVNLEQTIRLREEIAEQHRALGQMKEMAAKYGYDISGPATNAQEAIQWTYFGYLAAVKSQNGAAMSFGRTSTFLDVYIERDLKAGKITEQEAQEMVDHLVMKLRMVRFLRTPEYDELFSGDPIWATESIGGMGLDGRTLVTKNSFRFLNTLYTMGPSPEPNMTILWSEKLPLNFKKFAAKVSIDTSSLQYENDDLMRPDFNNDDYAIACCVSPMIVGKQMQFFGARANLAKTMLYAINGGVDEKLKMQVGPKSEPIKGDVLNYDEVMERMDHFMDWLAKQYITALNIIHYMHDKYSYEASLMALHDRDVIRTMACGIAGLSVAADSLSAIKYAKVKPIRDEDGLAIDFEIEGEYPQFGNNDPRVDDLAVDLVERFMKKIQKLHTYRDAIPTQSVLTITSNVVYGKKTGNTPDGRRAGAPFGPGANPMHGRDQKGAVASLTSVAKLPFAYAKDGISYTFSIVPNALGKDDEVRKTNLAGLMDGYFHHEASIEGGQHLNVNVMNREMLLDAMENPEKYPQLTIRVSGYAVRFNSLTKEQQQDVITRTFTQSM
Nature of the assay: cross-linking.

For assay [3], the target named is T1, N-terminally His-tagged PflB. Put plainly: pull-down.

In assay [1], “zip from GCN4 (T25-zip and T18-zip, positive control of the BACTH kit) (domain or fragment)” displayed a β-galactosidase activity of 715 units.

B1: FocA, purified preparation used for BS2G cross-linking (natural protein, E. coli)
chain: MKADNPFDLLLPAAMAKVAEEAGVYKATKHPLKTFYLAITAGVFISIAFVFYITATTGTGTMPFGMAKLVGGICFSLGLILCVVCGADLFTSTVLIVVAKASGRITWGQLAKNWLNVYFGNLVGALLFVLLMWLSGEYMTANGQWGLNVLQTADHKVHHTFIEAVCLGILANLMVCLAVWMSYSGRSLMDKAFIMVLPVAMFVASGFEHSIANMFMIPMGIVIRDFASPEFWTAVGSAPENFSHLTVMNFITDNLIPVTIGNIIGGGLLVGLTYWVIYLRENDHH
As for B1, the binding result in assay [2] was “binds”.

B2: N-terminally Strep-tagged FocA (formate channel A) (natural protein, E. coli, UniProt P0AC23 1-285, looked up)
chain: B1 chain
In the case of B2, the binding result in assay [3] is on record as “binds”.

(Values after PMC5560055 (Journal of molecular biology, 2014).)
